{
  "source": "paper PMC11912907",
  "about": "“RNA recognition by minimal ProQ from Neisseria meningitidis”",
  "molecules": {"B1": {"name": "AniS-loop (structured_RNA)", "RNA": "GGUUUCCUCUUGAUGUGUGUGUUUGGGUGUGGCGAAAGCCACCCCUUUUUUUU"}, "B2": {"name": "AniS-U7 (structured_RNA)", "RNA": "GGUUUCCUCUUGAUGUGUGUGUUUGGGUGUGGCUGCCGCCACCCCUUUUUUU"}, "B3": {"name": "rpmG-U6AU2 (structured_RNA)", "RNA": "GGGAUUUCAGUUUGAAAGCAAAGCCUCCGACUGUUCGGAGGCUUUUUUAUU"}, "B4": {"name": "AniS-U6 (structured_RNA)", "RNA": "GGUUUCCUCUUGAUGUGUGUGUUUGGGUGUGGCUGCCGCCACCCCUUUUUU"}, "B5": {"name": "intergenic (structured_RNA)", "RNA": "GGUAAUGCCGAAAGGGGUUUGACGAUGCCGGCGUGCGCUGUCAAACCCUUUUUCU"}},
  "key": {"[1]": {"target": "T1, ProQ (minimal ProQ, FinO domain with short N- and C-terminal extensions) (Neisseria meningitidis) (UniProt Q9JY98)", "T1 sequence": "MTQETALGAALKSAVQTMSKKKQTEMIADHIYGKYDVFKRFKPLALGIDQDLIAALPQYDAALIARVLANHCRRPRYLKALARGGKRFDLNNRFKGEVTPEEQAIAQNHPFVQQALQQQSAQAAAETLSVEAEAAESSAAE", "test": "EMSA", "conditions": "25 mM Tris pH 7.5, 150 mM NaCl, 5% glycerol, 1 mM MgCl2, 1 nM 32P-RNA, ProQ up to 50 nM, 30 min at room temperature; 6% native gel at 4 C"}, "[2]": {"target": "T2, ProQ (minimal ProQ, FinO domain with short N- and C-terminal extensions) (Neisseria meningitidis, UniProt Q9JY98 1-141)", "T2 sequence": "T1 sequence", "test": "EMSA; max bound 53%; Hill fit; 25 mM Tris pH 7.5, 150 mM NaCl, 5% glycerol, 1 mM MgCl2, 1 nM 32P-RNA, ProQ up to 50 nM, 30 min at room temperature; 6% native gel at 4 C", "conditions": "protein: recombinant; tags: N-terminal His6-TEV, cleaved; one extra N-terminal Ser remains; label: 5'-32P; terminator hairpin, GAAA loop"}, "[3]": {"target": "T2, ProQ (minimal ProQ, FinO domain with …)", "test": "EMSA; max bound 88%; 25 mM Tris pH 7.5, 150 mM NaCl, 5% glycerol, 1 mM MgCl2, 1 nM 32P-RNA, ProQ up to 50 nM, 30 min at room temperature; 6% native gel at 4 C", "conditions": "protein: recombinant, tags: N-terminal His6-TEV, cleaved, one extra N-terminal Ser remains, label: 5'-32P, terminator hairpin"}, "[4]": {"target": "T2, ProQ (minimal ProQ, FinO domain with …)", "test": "EMSA; max bound 91%; 25 mM Tris pH 7.5, 150 mM NaCl, 5% glycerol, 1 mM MgCl2, 1 nM 32P-RNA, ProQ up to 50 nM, 30 min at room temperature; 6% native gel at 4 C", "conditions": "protein: recombinant; tags: N-terminal His6-TEV, cleaved; one extra N-terminal Ser remains; label: 5'-32P; hairpin, GAAA loop"}, "[5]": {"target": "T2, ProQ (minimal ProQ, FinO domain with …)", "test": "EMSA; max bound 53%; 25 mM Tris pH 7.5, 150 mM NaCl, 5% glycerol, 1 mM MgCl2, 1 nM 32P-RNA, ProQ up to 50 nM, 30 min at room temperature; 6% native gel at 4 C", "conditions": "protein: recombinant; tags: N-terminal His6-TEV, cleaved; one extra N-terminal Ser remains; label: 5'-32P; terminator hairpin, 4-U tail"}, "[6]": {"target": "T2, ProQ (minimal ProQ, FinO domain with …)", "test": "EMSA; max bound 79%; 25 mM Tris pH 7.5, 150 mM NaCl, 5% glycerol, 1 mM MgCl2, 1 nM 32P-RNA, ProQ up to 50 nM, 30 min at room temperature; 6% native gel at 4 C", "conditions": "protein: recombinant; tags: N-terminal His6-TEV, cleaved; one extra N-terminal Ser remains; label: 5'-32P; terminator hairpin, 6-U tail"}, "[7]": {"target": "T2, ProQ (minimal ProQ, FinO domain with …)", "test": "EMSA; max bound 58%; 25 mM Tris pH 7.5, 150 mM NaCl, 5% glycerol, 1 mM MgCl2, 1 nM 32P-RNA, ProQ up to 50 nM, 30 min at room temperature; 6% native gel at 4 C", "conditions": "protein: recombinant; tags: N-terminal His6-TEV, cleaved; one extra N-terminal Ser remains; label: 5'-32P; terminator hairpin, 4-U tail"}, "[8]": {"target": "T2, ProQ (minimal ProQ, FinO domain with …)", "test": "EMSA; max bound 64%; 25 mM Tris pH 7.5, 150 mM NaCl, 5% glycerol, 1 mM MgCl2, 1 nM 32P-RNA, ProQ up to 50 nM, 30 min at room temperature; 6% native gel at 4 C", "conditions": "protein: recombinant; tags: N-terminal His6-TEV, cleaved; one extra N-terminal Ser remains; label: 5'-32P; hairpin, GAAA loop"}, "[9]": {"target": "T2, ProQ (minimal ProQ, FinO domain with …)", "test": "EMSA; max bound 80%; 25 mM Tris pH 7.5, 150 mM NaCl, 5% glycerol, 1 mM MgCl2, 1 nM 32P-RNA, ProQ up to 50 nM, 30 min at room temperature; 6% native gel at 4 C", "conditions": "protein: recombinant; tags: N-terminal His6-TEV, cleaved; one extra N-terminal Ser remains; label: 5'-32P; hairpin, GAAA loop"}, "[10]": {"target": "T2, ProQ (minimal ProQ, FinO domain with …)", "test": "EMSA; undetected up to 50 nM ProQ; 25 mM Tris pH 7.5, 150 mM NaCl, 5% glycerol, 1 mM MgCl2, 1 nM 32P-RNA, ProQ up to 50 nM, 30 min at room temperature; 6% native gel at 4 C", "conditions": "protein: recombinant; tags: N-terminal His6-TEV, cleaved; one extra N-terminal Ser remains; label: 5'-32P; terminator hairpin, no tail"}, "[11]": {"target": "T2, ProQ (minimal ProQ, FinO domain with …)", "test": "EMSA; max bound 85%; 25 mM Tris pH 7.5, 150 mM NaCl, 5% glycerol, 1 mM MgCl2, 1 nM 32P-RNA, ProQ up to 50 nM, 30 min at room temperature; 6% native gel at 4 C", "conditions": "protein: recombinant; tags: N-terminal His6-TEV, cleaved; one extra N-terminal Ser remains; label: 5'-32P; terminator hairpin, 5-U tail"}, "[12]": {"target": "T2, ProQ (minimal ProQ, FinO domain with …)", "test": "EMSA; max bound 86%; 25 mM Tris pH 7.5, 150 mM NaCl, 5% glycerol, 1 mM MgCl2, 1 nM 32P-RNA, ProQ up to 50 nM, 30 min at room temperature; 6% native gel at 4 C", "conditions": "protein: recombinant; tags: N-terminal His6-TEV, cleaved; one extra N-terminal Ser remains; label: 5'-32P"}, "[13]": {"target": "T2, ProQ (minimal ProQ, FinO domain with …)", "test": "EMSA; max bound 81%; 25 mM Tris pH 7.5, 150 mM NaCl, 5% glycerol, 1 mM MgCl2, 1 nM 32P-RNA, ProQ up to 50 nM, 30 min at room temperature; 6% native gel at 4 C", "conditions": "protein: recombinant; tags: N-terminal His6-TEV, cleaved; one extra N-terminal Ser remains; label: 5'-32P; terminator hairpin, GAAA loop"}, "[14]": {"target": "T2, ProQ (minimal ProQ, FinO domain with …)", "test": "EMSA; max bound 89%; 25 mM Tris pH 7.5, 150 mM NaCl, 5% glycerol, 1 mM MgCl2, 1 nM 32P-RNA, ProQ up to 50 nM, 30 min at room temperature; 6% native gel at 4 C", "conditions": "protein: recombinant, tags: N-terminal His6-TEV, cleaved, one extra N-terminal Ser remains, label: 5'-32P, terminator hairpin"}, "[15]": {"target": "T2, ProQ (minimal ProQ, FinO domain with …)", "test": "EMSA; max bound 90%; 25 mM Tris pH 7.5, 150 mM NaCl, 5% glycerol, 1 mM MgCl2, 1 nM 32P-RNA, ProQ up to 50 nM, 30 min at room temperature; 6% native gel at 4 C", "conditions": "protein: recombinant; tags: N-terminal His6-TEV, cleaved; one extra N-terminal Ser remains; label: 5'-32P; terminator hairpin, 5-U tail"}, "[16]": {"target": "T2, ProQ (minimal ProQ, FinO domain with …)", "test": "EMSA; max bound 66%; estimated, not accurately fit; 25 mM Tris pH 7.5, 150 mM NaCl, 5% glycerol, 1 mM MgCl2, 1 nM 32P-RNA, ProQ up to 50 nM, 30 min at room temperature; 6% native gel at 4 C", "conditions": "protein: recombinant; tags: N-terminal His6-TEV, cleaved; one extra N-terminal Ser remains; label: 5'-32P; terminator hairpin, 7 nt 3' tail"}},
  "data": [
    {"molecule": "carA-5'", "values": [
      {"measurement": "Kd", "setting": "[1]", "value": 1.3, "unit": "nM"}
    ]},
    {"molecule": "iga-3'", "values": [
      {"measurement": "Kd", "setting": "[1]", "value": 0.3, "unit": "nM"}
    ]},
    {"molecule": "pnp-5'", "values": [
      {"measurement": "Kd", "setting": "[1]", "value": 7.9, "unit": "nM"}
    ]},
    {"molecule": "B1", "values": [
      {"measurement": "Kd", "setting": "[2]", "value": "0.39 ± 0.18", "unit": "nM"}
    ]},
    {"molecule": "B2", "values": [
      {"measurement": "Kd", "setting": "[3]; 7-U tail", "value": "0.82 ± 0.21", "unit": "nM"}
    ]},
    {"molecule": "GGGAUUUCAGUUUGAAAGCAAAGCCUCCGAAAGGAGGCUUUUUU (structured_RNA)", "note": "[rpmG-loop-44]", "values": [
      {"measurement": "Kd", "setting": "[4]", "value": "4 ± 2", "unit": "nM"}
    ]},
    {"molecule": "B3", "values": [
      {"measurement": "Kd", "setting": "[3]; 9 nt 3' tail", "value": "0.22 ± 0.26", "unit": "nM"}
    ]},
    {"molecule": "GGUUUCCUCUUGAUGUGUGUGUUUGGGUGUGGCUGCCGCCACCCCUUUU (structured_RNA)", "note": "[AniS-U4]", "values": [
      {"measurement": "Kd", "setting": "[5]", "value": "0.9 ± 0.58", "unit": "nM"}
    ]},
    {"molecule": "B4", "values": [
      {"measurement": "Kd", "setting": "[6]", "value": "0.7 ± 0.62", "unit": "nM"}
    ]},
    {"molecule": "GGGAUUUCAGUUUGAAAGCAAAGCCUCCGACUGUUCGGAGGCUUUU (structured_RNA)", "note": "[rpmG-U4]", "values": [
      {"measurement": "Kd", "setting": "[7]", "value": "2.6 ± 3.5", "unit": "nM"}
    ]},
    {"molecule": "GGGAUUUCAGUUUGAAAGCAAAGCGAAAGCUUUUUU (structured_RNA)", "note": "[rpmG-loop-36]", "values": [
      {"measurement": "Kd", "setting": "[8]", "value": "0.13 ± 0.14", "unit": "nM"}
    ]},
    {"molecule": "GGGAUUUCAGUUUGAAAGCAAAGCCUGAAAAGGCUUUUUU (structured_RNA)", "note": "[rpmG-loop-40]", "values": [
      {"measurement": "Kd", "setting": "[9]", "value": "1.2 ± 1.5", "unit": "nM"}
    ]},
    {"molecule": "GGUUUCCUCUUGAUGUGUGUGUUUGGGUGUGGCUGCCGCCACCCC (structured_RNA)", "note": "[AniS-noU]", "values": [
      {"measurement": "binding result", "setting": "[10]", "value": "no binding"}
    ]},
    {"molecule": "GGGAUUUCAGUUUGAAAGCAAAGCCUCCGACUGUUCGGAGGCUUUUU (structured_RNA)", "note": "[rpmG-U5]", "values": [
      {"measurement": "Kd", "setting": "[11]", "value": "0.47 ± 0.27", "unit": "nM"}
    ]},
    {"molecule": "B5", "values": [
      {"measurement": "Kd", "setting": "[12]", "value": "1.4 ± 1", "unit": "nM"}
    ]},
    {"molecule": "GGGAUUUCAGUUUGAAAGCAAAGCCUCCGAGAAAUCGGAGGCUUUUUU (structured_RNA)", "note": "[rpmG-loop]", "values": [
      {"measurement": "Kd", "setting": "[13]", "value": "0.5 ± 0.34", "unit": "nM"}
    ]},
    {"molecule": "GGGAUUUCAGUUUGAAAGCAAAGCCUCCGACUGUUCGGAGGCUUUUUU (structured_RNA)", "note": "[rpmG-3']", "values": [
      {"measurement": "Kd", "setting": "[14]; 6-U 3' tail, 3 U paired with upstream A", "value": "1 ± 0.52", "unit": "nM"}
    ]},
    {"molecule": "GGUUUCCUCUUGAUGUGUGUGUUUGGGUGUGGCUGCCGCCACCCCUUUUU (structured_RNA)", "note": "[AniS-U5]", "values": [
      {"measurement": "Kd", "setting": "[15]", "value": "6.5 ± 1.3", "unit": "nM"}
    ]},
    {"molecule": "GGGAUUUCAGUUUGAAAGCAAAGCCUCCGACUGUUCGGAGGCUUUUUUAU (structured_RNA)", "note": "[rpmG-U6AU]", "values": [
      {"measurement": "Kd", "setting": "[14]; 8 nt 3' tail", "value": "0.2 ± 0.23", "unit": "nM"}
    ]},
    {"molecule": "GGGAUUUCAGUUUGAAAGCAAAGCCUCCGACUGUUCGGAGGCUUUUUUA (structured_RNA)", "note": "[rpmG-U6A]", "values": [
      {"measurement": "Kd", "setting": "[16]", "value": "< 0.5", "unit": "nM"}
    ]}
  ]
}
